In publication PMC6056499, “A systematic dissection of sequence elements determining β-Klotho and FGF interaction and signaling” (Scientific Reports, 2018):
Like-named read-outs stand apart in the source and are kept apart here.

Legend:
β-Klotho/FGFR1c = experiment: Elk1-luciferase reporter assay in CHO reporter cells stably expressing human β-Klotho and FGFR1c; format: cell-based; conditions: 4 h treatment, three independent experiments in duplicates, read-out: EC50, stimulation of Elk1-luciferase reporter activity
Method: To measure the signaling activity of Fc-FGF21 mutants, ELK luciferase assay was performed in CHO cells stably transfected with human FGFR1c, β-Klotho and the two reporter constructs described above. CHO reporter cells were maintained in DMEM supplemented with 10% (v/v) dialyzed FBS (GE Healthcare Life Sciences), 6 µg/mL puromycin (Sigma) and 400 μg/mL hygromycin (Invitrogen) in a 37 °C incubator with 5% CO2. Cells were plated on 96-well plates in growth medium and incubated overnight. The next day, cells were serum-starved in Ham’s F-12K Nutrient Mixture (Corning) supplemented with 1% (w/v) BSA (Sigma) overnight. Following starvation, Fc-FGF21 protein was added to cells in starvation medium. Plates were incubated for 4 hours at 37 °C with 5% CO2, after which the cells were lysed in Steady-Glo luciferase reagent (Promega). Luciferase activity was measured and analyzed as described above.

β-Klotho/FGFR complex = experiment: Elk1-luciferase reporter assay in HEK293T reporter cells transiently transfected with full-length WT β-Klotho; format: cell-based, human; conditions: 6 h treatment, mean ± SD of three independent experiments, read-out: EC50, stimulation of Elk1-luciferase reporter activity (KLB WT)
Method: (§1) To measure the signaling activity of β-Klotho mutants, ELK luciferase assay was performed in HEK293T cells that were stably transfected with reporter constructs containing 5 × UAS upstream of luciferase and Gal4 DNA-binding domain fused to ELK1. Briefly, HEK293T reporter cells were maintained in DMEM supplemented with 10% (v/v) FBS (Gibco) and 2 mM GlutaMax (Gibco) in a 37 °C incubator with 5% CO2. Cells were plated on 96-well plates in growth medium and incubated overnight. The next day, cells were transfected with expression vectors encoding full-length β-Klotho WT or mutants using the Lipofectamine 2000 transfection reagent (Invitrogen) according to the manufacturer’s protocol. Cells were serum-starved in DMEM supplemented with 5% (v/v) FBS (Gibco) and 2 mM GlutaMax (Gibco) overnight the day after transfection and treated with FGF21 for 6 hours at 37 °C with 5% CO2, after which the cells were lysed in Bright-Glo luciferase reagent (Promega). Luciferase activity was measured in relative luminescence units on the EnVision Multilabel Plate Reader (PerkinElmer) according to the manufacturer’s instructions. All assays were performed in duplicates. EC50 values were determined from a three-parameter logistic regression model with the least squares fit using GraphPad Prism version 7.

[1] = tested on: FGFR (expressed endogenously in HEK293T reporter cells); experiment: Elk1-luciferase reporter assay in HEK293T reporter cells without β-Klotho (no KLB); format: cell-based, human; conditions: d.n.c = did not converge
Method: as §1, with “The next day, cells were transfected with expression vectors encoding full-length β-Klotho WT or mutants using the Lipofectamine 2000 transfection reagent (Invitrogen) according to the manufacturer’s protocol.” left out

B1: FGF21: mature human FGF21 protein, endocrine fibroblast growth factor (protein)
chain: HPIPDSSPLLQFGGQVRQRYLYTDDAQQTEAHLEIREDGTVGGAADQSPESLLQLKALKPGVIQILGVKTSRFLCQRPDGALYGSLHFDPEACSFRELLLEDGYNVYQSEAHGLPLHLPGNKSPHRDPAPRGPARFLPLPGLPPALPEPPGILAPQPPDVGSSDPLSMVGPSQGRSPSYAS
modifications: biotin (EZ-Link Sulfo-NHS-LC-Biotin) in the solid-phase binding assay; biotinylated as the labelled ligand in AlphaScreen
notes: mature human FGF21 protein, endocrine fibroblast growth factor
β-Klotho/FGFR1c
  EC50: 0.57 ± 0.09 nM
β-Klotho/FGFR complex; Fig 3A
  EC50: 3.5 ± 1.1 nM
β-Klotho/FGFR complex; Fig 3D
  EC50: 2.87 ± 1.15 nM
[1]; Fig 3A, mean ± SD of three independent experiments
  EC50, stimulation of Elk1-luciferase reporter activity (no KLB): d.n.c
[1]; Fig 3D
  EC50, stimulation of Elk1-luciferase reporter activity (no KLB): d.n.c

B2: Fc-FGF21: mature human FGF21 polypeptide fused with the human Fc fragment at the N-terminus (protein)
chain: B1 chain
modifications: left off: Fc (human), N-terminal, kept
notes: mature human FGF21 polypeptide fused with the human Fc fragment at the N-terminus
β-Klotho/FGFR1c
  EC50: 1.85 ± 0.44 nM
